# Assay results taken from article PMC5526998, “Structural analysis of the regulatory mechanism of MarR protein Rv2887 in M. tuberculosis” (Scientific Reports, 2017).
# T1: Rv2887 (MarR family regulator) (Mycobacterium tuberculosis H37Rv) (UniProt P9WME9)
# T1 sequence: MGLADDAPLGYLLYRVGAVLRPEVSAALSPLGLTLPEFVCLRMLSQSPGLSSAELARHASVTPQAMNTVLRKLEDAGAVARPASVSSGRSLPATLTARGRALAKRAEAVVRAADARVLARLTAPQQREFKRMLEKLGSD
# T2: Rv2887 (crystal with DNA) (Mycobacterium tuberculosis H37Rv, UniProt P9WME9 1-139)
# T2 sequence: T1 sequence
# B1: 30 bp Rv0560c operator duplex (dsDNA)
# DNA 1: CGATCGACGACCGCCGTTCAGCTGACGTCG
# DNA 2: CGACGTCAGCTGAACGGCGGTCGTCGATCG
# How the values were obtained:
# [1] = biological target: T1, Rv2887 (MarR family regulator) (Mycobacterium tuberculosis H37Rv); test: EMSA
# [2] = biological target: T1, Rv2887 (MarR family regulator) (Mycobacterium tuberculosis H37Rv); test: DNase I footprinting
# [3] = biological target: T2, Rv2887 (crystal with DNA); test: X-ray crystal structure (2.5 A); settings: protein: recombinant; tags: N-terminal 6xHis (pET-28a); chain copies: 4; blunt
molecule,measurement,setting,value
CGAACTCAAGATCCAGCGATTCAGTCATGTGTTCATATATATCAACGGCCCTGATATATGTCAACACAGTTGACATTCGCGCACCCTTGGTTGCCGGCCGTCAGCTGAACGGCGGTCGTCGATCGACGAGCCGGGACAATTGACCGCCACCGCGCCACACCCGCGCCACCCAGTCGCGGTCGTCGTCGGTGACCAGATTGGACATCACCCGCACGGCGATGTTCATCAATGCGGTGGAGCGCATCGTGATGGGC (double strand) [Rv0560c upstream probe (biotin)],binding,[1],binds
CGAACTCAAGATCCAGCGATTCAGTCATGTGTTCATATATATCAACGGCCCTGATATATGTCAACACAGTTGACATTCGCGCACCCTTGGTTGCCGGCCGTCAGCTGAACGGCGGTCGTCGATCGACGAGCCGGGACAATTGACCGCCACCGCGCCACACCCGCGCCACCCAGTCGCGGTCGTCGTCGGTGACCAGATTGGACATCACCCGCACGGCGATGTTCATCAATGCGGTGGAGCGCATCGTGATGGGC (double strand) [Rv0560c upstream probe (6-FAM)],binding,[2],binds
B1,binding result,[3],binds
